Measurements taken from PMC10968512, “Cry Toxins Use Multiple ATP-Binding Cassette Transporter Subfamily C Members as Low-Efficiency Receptors in Bombyx mori” (Biomolecules, 2024).

How the values were obtained:
[1] = biological target: T1, Bombyx mori ABC transporter subfamily C member 1, BmABCC1-FLAG (Bombyx mori); assay: SPR; BIACORE; BmABCC immobilised on a CM5 sensor chip; toxins (or BSA) in PBST (PBS with 0.005% Tween 20) at 500 and/or 1000 nM; 120 s association, 240 s dissociation; fitted with two-state reaction models (BIAevaluation ver.4.1); conditions: both partners purified
T1 construct: BmABCC1 (MRP1) of Bombyx mori, protein XP_012546136.1, cDNA XM_012690682.3 amplified from midgut cDNA; also called MRP1 (name in the NCBI)

[2] = biological target: T2, Bombyx mori ABC transporter subfamily C member 4, BmABCC4-FLAG (Bombyx mori); assay: as above; conditions: both partners purified
T2 construct: BmABCC4 (MRP4) of Bombyx mori, protein XP_021205339.2, cDNA XM_021349664.2 amplified from midgut cDNA; also called MRP4 (name in the NCBI)
T2 sequence (main, as listed by the source): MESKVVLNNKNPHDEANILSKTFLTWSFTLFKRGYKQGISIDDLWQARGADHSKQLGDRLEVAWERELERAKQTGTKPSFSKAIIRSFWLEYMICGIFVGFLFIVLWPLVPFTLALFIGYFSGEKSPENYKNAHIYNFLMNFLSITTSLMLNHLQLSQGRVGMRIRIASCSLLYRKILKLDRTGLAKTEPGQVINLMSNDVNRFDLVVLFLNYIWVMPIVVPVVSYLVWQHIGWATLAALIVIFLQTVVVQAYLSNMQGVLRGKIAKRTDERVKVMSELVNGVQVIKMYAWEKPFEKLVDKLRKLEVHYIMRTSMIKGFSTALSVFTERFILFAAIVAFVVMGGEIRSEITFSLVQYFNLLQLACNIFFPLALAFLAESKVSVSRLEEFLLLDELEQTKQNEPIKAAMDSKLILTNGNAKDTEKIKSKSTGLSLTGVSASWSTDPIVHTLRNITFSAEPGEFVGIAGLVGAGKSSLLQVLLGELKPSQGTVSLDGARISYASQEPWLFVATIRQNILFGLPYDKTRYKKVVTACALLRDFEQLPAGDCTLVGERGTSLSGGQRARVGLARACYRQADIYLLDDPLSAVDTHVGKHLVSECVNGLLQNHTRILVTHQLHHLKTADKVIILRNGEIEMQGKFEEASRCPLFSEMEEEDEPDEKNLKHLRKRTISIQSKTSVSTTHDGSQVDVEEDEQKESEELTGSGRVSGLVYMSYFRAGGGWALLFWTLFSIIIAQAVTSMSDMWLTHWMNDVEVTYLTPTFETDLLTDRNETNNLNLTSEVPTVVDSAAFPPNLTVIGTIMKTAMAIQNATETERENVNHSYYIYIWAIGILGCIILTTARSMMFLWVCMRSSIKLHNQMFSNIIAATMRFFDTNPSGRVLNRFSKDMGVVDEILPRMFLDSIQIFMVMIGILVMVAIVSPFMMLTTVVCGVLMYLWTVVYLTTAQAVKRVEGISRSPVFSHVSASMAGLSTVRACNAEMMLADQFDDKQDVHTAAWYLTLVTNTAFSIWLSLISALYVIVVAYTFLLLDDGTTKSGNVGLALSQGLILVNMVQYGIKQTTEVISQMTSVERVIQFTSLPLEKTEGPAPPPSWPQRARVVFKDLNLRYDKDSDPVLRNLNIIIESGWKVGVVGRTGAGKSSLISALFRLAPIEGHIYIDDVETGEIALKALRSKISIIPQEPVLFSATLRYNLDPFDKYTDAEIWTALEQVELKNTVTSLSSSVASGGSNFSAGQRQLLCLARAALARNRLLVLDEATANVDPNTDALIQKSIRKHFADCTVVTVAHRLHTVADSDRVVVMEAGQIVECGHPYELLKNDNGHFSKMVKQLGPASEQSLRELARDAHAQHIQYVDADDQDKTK

T1 sequence (main, as listed by the source): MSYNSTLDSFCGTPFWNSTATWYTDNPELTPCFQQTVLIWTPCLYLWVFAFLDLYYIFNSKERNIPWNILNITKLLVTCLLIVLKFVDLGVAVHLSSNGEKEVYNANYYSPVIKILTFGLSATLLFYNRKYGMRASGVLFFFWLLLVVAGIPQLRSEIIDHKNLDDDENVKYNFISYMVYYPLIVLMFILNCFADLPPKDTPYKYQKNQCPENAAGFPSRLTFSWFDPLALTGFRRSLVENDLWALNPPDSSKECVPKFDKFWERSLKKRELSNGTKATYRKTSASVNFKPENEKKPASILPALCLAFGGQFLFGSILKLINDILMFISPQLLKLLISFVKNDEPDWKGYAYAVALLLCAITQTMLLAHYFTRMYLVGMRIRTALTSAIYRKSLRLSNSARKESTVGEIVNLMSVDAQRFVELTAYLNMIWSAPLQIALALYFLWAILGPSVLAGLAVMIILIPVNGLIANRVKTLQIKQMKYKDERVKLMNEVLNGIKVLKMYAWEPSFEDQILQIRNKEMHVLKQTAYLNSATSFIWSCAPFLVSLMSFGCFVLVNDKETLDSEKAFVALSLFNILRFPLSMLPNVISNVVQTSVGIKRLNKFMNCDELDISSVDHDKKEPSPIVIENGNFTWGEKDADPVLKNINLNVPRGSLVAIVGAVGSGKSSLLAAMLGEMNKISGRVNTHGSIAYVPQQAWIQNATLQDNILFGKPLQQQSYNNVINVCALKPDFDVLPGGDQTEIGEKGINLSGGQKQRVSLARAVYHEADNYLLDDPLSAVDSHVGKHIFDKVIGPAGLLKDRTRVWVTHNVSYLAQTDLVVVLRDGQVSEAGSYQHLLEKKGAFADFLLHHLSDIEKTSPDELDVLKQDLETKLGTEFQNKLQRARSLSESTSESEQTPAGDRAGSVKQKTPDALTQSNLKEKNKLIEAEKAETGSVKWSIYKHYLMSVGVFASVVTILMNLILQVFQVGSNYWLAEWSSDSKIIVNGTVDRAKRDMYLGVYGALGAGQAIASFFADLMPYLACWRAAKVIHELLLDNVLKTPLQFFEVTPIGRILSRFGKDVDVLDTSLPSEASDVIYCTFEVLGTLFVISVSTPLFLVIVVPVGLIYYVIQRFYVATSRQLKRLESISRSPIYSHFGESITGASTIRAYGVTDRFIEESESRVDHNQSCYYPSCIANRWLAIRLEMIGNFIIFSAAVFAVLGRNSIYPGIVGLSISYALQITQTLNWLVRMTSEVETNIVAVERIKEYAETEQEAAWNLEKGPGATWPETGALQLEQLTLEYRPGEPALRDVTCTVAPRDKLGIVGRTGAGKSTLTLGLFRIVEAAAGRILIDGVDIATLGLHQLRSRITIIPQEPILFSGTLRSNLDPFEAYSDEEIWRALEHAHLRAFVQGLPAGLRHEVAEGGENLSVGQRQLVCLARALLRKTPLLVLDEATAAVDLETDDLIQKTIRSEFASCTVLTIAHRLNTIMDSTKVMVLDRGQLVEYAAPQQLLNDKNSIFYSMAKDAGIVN

B1: Cry1Aa toxin (trypsin-activated) (domain or fragment)
chain: not shown
Kd [1]: 46.1 µM
Kd [2]: 0.267 µM

B2: Cry8Ca toxin (trypsin-activated) (domain or fragment)
chain: ISAQDAVGTGIDIVSTIISGLGIPVLGEVFSILGSLIGLLWPSNNENVWQIFMNRVEELIDQKILDSVRSRAIADLANSRIAVEYYQNALEDWRKNPHSTRSAALVKERFGNAEAILRTNMGSFSQTNYETPLLPTYAQAASLHLLVMRDVQIYGKEWGYPQNDIDLFYKEQVSYTARYSDHCVQWYNAGLNKLRGTGAKQWVDYNRFRREMNVMVLDLVALFPNYDARIYPLETNAELTREIFTDPVGSYVTGQSSTLISWYDMIPAALPSFSTLENLLRKPDFFTLLQEIRMYTSFRQNGTIEYYNYWGGQRLTLSYIYGSSFNKYSGVLAGAEDIIPVGQNDIYRVVWTYIGRYTNSLLGVNPVTFYFSNNTQKTYSKPKQFAGGIKTIDSGEELTYENYQSYSHRVSYITSFEIKSTGGTVLGVVPIFGWTHSSASRNNFIYATKISQIPINKASRTSGGAVWNFQEGLYNGGPVMKLSGSGSQVINLRVATDAKGASQRYRIRIRYASDRAGKFTISSRSPENPATYSASIAYTNTMSTNASLTYSTFAYAESGPINLGISGSSRTFDISITKEAGAANLYIDRIEF
Kd [1]: 0.0348 µM
Kd [2]: 0.0617 µM

B3: Cry9Aa toxin (trypsin-activated) (domain or fragment)
chain: YPLANNPYSSALNLNSCQNSSILNWINIIGDAAKEAVSIGTTIVSLITAPSLTGLISIVYDLIGKVLGGSSGQSISDLSICDLLSIIDLRVSQSVLNDGIADFNGSVLLYRNYLEALDSWNKNPNSASAEELRTRFRIADSEFDRILTRGSLTNGGSLARQNAQILLLPSFASAAFFHLLLLRDATRYGTNWGLYNATPFINYQSKLVELIELYTDYCVHWYNRGFNELRQRGTSATAWLEFHRYRREMTLMVLDIVASFSSLDITNYPIETDFQLSRVIYTDPIGFVHRSSLRGESWFSFVNRANFSDLENAIPNPRPSWFLNNMIISTGSLTLPVSPSTDRARVWYGSRDRISPANSQFITELISGQHTTATQTILGRNIFRVDSQACNLNDTTYGVNRAVFYHDASEGSQRSVYEGYIRTTGIDNPRVQNINTYLPGENSDIPTPEDYTHILSTTINLTGGLRQVASNRRSSLVMYGWTHKSLARNNTINPDRITQIPLTKVDTRGTGVSYVNDPGFIGGALLQRTDHGSLGVLRVQFPLHLRQQYRIRVRYASTTNIRLSVNGSFGTISQNLPSTMRLGEDLRYGSFAIREFNTSIRPTASPDQIRLTIEPSFIRQEVYVDRIEFIPVNPT
Kd [1]: 0.00189 µM

B4: Cry1Da toxin (trypsin-activated) (domain or fragment)
chain: ETGNTVADISLGLINFLYSNFVPGGGFIVGLLELIWGFIGPSQWDIFLAQIEQLISQRIEEFARNQAISRLEGLSNLYKVYVRAFSDWEKDPTNPALREEMRIQFNDMNSALITAIPLFRVQNYEVALLSVYVQAANLHLSILRDVSVFGERWGYDTATINNRYSDLTSLIHVYTNHCVDTYNQGLRRLEGRFLSDWIVYNRFRRQLTISVLDIVAFFPNYDIRTYPIQTATQLTREVYLDLPFINENLSPAASYPTFSAAESAIIRSPHLVDFLNSFTIYTDSLARYAYWGGHLVNSFRTGTTTNLIRSPLYGREGNTERPVTITASPSVPIFRTLSYITGLDNSNPVAGIEGVEFQNTISRSIYRKSGPIDSFSELPPQDASVSPAIGYSHRLCHATFLERISGPRIAGTVFSWTHRSASPTNEVSPSRITQIPWVKAHTLASGASVIKGPGFTGGDILTRNSMGELGTLRVTFTGRLPQSYYIRFRYASVANRSGTFRYSQPPSYGISFPKTMDAGEPLTSRSFAHTTLFTPITFSRAQEEFDLYIQSGVYIDRIEFIPVTAT
Kd [1]: 0.415 µM
Kd [2]: 0.0637 µM
